In paper PMC10397247:
Values belong to the binder of their own block, whether it stands above or below them.

Assays:
[1] = molecular target: T1, 4H3926-bA; experiment: two-hybrid library CCNG1; conditions: mean of both orientations;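 further: natural log of median RNA to DNA barcode read ratio; higher means stronger binding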
T1 chain: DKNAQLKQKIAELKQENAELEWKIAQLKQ

[2] = molecular target: T2, 4H4073-bA; experiment: two-hybrid library CCNG1;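 further: natural log of median RNA to DNA barcode read ratio; higher means stronger binding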
T2 chain: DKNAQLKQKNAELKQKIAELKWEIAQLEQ

[3] = molecular target: T3, 4H457-bA; experiment: two-hybrid library CCNG1;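 further: natural log of median RNA to DNA barcode read ratio; higher means stronger binding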
T3 chain: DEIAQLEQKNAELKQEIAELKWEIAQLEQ

[4] = molecular target: T4, 4H575-bA; experiment: two-hybrid library CCNG1;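 further: natural log of median RNA to DNA barcode read ratio; higher means stronger binding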
T4 chain: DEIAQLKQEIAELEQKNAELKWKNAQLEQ

[5] = molecular target: T5, 4H591-bA; experiment: two-hybrid library CCNG1
T5 chain: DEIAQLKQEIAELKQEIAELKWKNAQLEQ

[6] = molecular target: T6, 4H626-bA; experiment: two-hybrid library CCNG1
T6 chain: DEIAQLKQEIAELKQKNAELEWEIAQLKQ

[7] = molecular target: T7, 4H683-bA; experiment: two-hybrid library CCNG1
T7 chain: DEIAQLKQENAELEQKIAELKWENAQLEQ

[8] = molecular target: T8, 4H754-bA; experiment: two-hybrid library CCNG1
T8 chain: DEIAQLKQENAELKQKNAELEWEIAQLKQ

[9] = molecular target: T9, 4H780-bA; experiment: two-hybrid library CCNG1
T9 chain: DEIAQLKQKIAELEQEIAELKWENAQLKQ

[10] = molecular target: T10, 4H797-bA; experiment: two-hybrid library CCNG1
T10 chain: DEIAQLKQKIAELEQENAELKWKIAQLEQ

[11] = molecular target: T11, 4H855-bA; experiment: two-hybrid library CCNG1
T11 chain: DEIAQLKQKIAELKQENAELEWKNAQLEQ

[12] = molecular target: T12, 4H906-bA; experiment: two-hybrid library CCNG1
T12 chain: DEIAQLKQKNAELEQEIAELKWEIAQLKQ

[13] = molecular target: T13, 4H918-bA; experiment: two-hybrid library CCNG1
T13 chain: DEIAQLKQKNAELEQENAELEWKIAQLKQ

[14] = molecular target: T14, 4H953-bA; experiment: two-hybrid library CCNG1
T14 chain: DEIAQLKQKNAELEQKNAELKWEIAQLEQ

[15] = molecular target: T15, 4H968-bA; experiment: two-hybrid library CCNG1
T15 chain: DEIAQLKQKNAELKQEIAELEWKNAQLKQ

[16] = molecular target: T16, 4H584-bA; experiment: two-hybrid library CCNG1
T16 chain: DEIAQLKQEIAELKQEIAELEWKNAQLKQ

[17] = molecular target: T17, 4H591-bN; experiment: two-hybrid library CCNG1
T17 chain: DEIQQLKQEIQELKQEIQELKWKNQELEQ

[18] = molecular target: T18, 4H619-bA; experiment: two-hybrid library CCNG1
T18 chain: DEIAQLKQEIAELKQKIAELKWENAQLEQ

[19] = molecular target: T19, 4H850-bA; experiment: two-hybrid library CCNG1
T19 chain: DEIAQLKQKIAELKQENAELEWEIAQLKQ

[20] = molecular target: T20, 4H3926-bH; experiment: two-hybrid library CCNG1; conditions: mean of both orientations
T20 chain: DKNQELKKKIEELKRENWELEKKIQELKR

[21] = molecular target: T21, 4H4073-bH; experiment: two-hybrid library CCNG1
T21 chain: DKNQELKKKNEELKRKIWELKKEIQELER

[22] = molecular target: T22, 4H457-bH; experiment: two-hybrid library CCNG1
T22 chain: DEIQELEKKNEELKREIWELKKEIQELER

[23] = molecular target: T23, 4H568-bA; experiment: two-hybrid library CCNG1
T23 chain: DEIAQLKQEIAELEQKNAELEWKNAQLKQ

[24] = molecular target: T24, 4H575-bH; experiment: two-hybrid library CCNG1
T24 chain: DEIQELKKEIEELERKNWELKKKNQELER

[25] = molecular target: T25, 4H591-bH; experiment: two-hybrid library CCNG1
T25 chain: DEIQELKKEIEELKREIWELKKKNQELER

[26] = molecular target: T26, 4H626-bH; experiment: two-hybrid library CCNG1
T26 chain: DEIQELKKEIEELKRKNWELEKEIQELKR

[27] = molecular target: T27, 4H683-bH; experiment: two-hybrid library CCNG1
T27 chain: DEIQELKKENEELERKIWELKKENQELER

[28] = molecular target: T28, 4H754-bH; experiment: two-hybrid library CCNG1
T28 chain: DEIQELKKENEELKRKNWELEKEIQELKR

[29] = molecular target: T29, 4H780-bH; experiment: two-hybrid library CCNG1
T29 chain: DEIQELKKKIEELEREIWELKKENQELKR

[30] = molecular target: T30, 4H797-bH; experiment: two-hybrid library CCNG1
T30 chain: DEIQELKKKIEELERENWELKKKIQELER

[31] = molecular target: T31, 4H855-bH; experiment: two-hybrid library CCNG1
T31 chain: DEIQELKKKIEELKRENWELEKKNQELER

[32] = molecular target: T32, 4H906-bH; experiment: two-hybrid library CCNG1
T32 chain: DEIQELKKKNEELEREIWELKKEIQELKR

[33] = molecular target: T33, 4H953-bH; experiment: two-hybrid library CCNG1
T33 chain: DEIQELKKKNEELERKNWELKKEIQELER

[34] = molecular target: T34, 4H968-bH; experiment: two-hybrid library CCNG1
T34 chain: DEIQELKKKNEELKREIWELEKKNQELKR

[35] = molecular target: T35, P7mS; experiment: two-hybrid library CC1
T35 chain: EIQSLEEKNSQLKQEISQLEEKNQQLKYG

[36] = molecular target: T36, P8; experiment: two-hybrid library CC1; conditions: mean of both orientations
T36 chain: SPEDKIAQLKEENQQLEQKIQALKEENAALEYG

[37] = molecular target: T37, P8mS; experiment: two-hybrid library CC1; conditions: mean of both orientations
T37 chain: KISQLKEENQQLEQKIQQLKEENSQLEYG

[38] = molecular target: T38, P9; experiment: two-hybrid library CC1; conditions: mean of both orientations
T38 chain: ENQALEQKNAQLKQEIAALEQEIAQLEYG

[39] = molecular target: T39, 4H918-bH; experiment: two-hybrid library CCNG1
T39 chain: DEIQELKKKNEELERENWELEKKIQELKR

[40] = molecular target: T40, O9-bP; experiment: two-hybrid library CCNG1; conditions: mean of both orientations
T40 chain: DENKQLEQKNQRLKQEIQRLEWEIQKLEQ

interaction score [1]: -0.117
interaction score [2]: -0.409
interaction score [3]: 0.866
interaction score [4]: 0.34
interaction score [5]: -1.19
interaction score [6]: -0.259
interaction score [7]: -0.786
interaction score [8]: -0.909
interaction score [9]: -0.771
interaction score [10]: 0
interaction score [11]: -1.23
interaction score [12]: -1.13
interaction score [13]: -0.539
interaction score [14]: 0.769
interaction score [15]: 1.59
Binder: DKNAQLKQKIAELKQENAELEWKIAQLKQ [4H3926-bA]

interaction score [16]: 0.598
interaction score [17]: -0.664
interaction score [18]: 1.1
interaction score [19]: 0.521
interaction score [12]: -0.288
Binder: DEIAQLKQEIAELKQEIAELEWKNAQLKQ [4H584-bA]

interaction score [20]: 0.997
interaction score [21]: -0.649
interaction score [22]: 0.423
interaction score [23]: 0.77
interaction score [24]: -0.061
interaction score [25]: -1.8
interaction score [26]: -1.31
interaction score [27]: -0.233
interaction score [28]: 0.0882
interaction score [29]: -0.369
interaction score [30]: 0.147
interaction score [31]: -0.798
interaction score [32]: -1.18
interaction score [33]: 1.52
interaction score [34]: 1.04
Binder: DKNQELKKKIEELKRENWELEKKIQELKR [4H3926-bH]

Binder: EIQSLEEKNSQLKQEISQLEEKNQQLKYG [P7mS]
interaction score [35]: -2.53
interaction score [36]: 0.285
interaction score [37]: -0.225
interaction score [38]: -2.27

interaction score [22]: 0.207
interaction score [24]: -1.98
interaction score [27]: -0.297
interaction score [28]: -0.826
interaction score [29]: -1.57
interaction score [30]: -0.848
interaction score [31]: -1.6
interaction score [39]: -0.832
interaction score [33]: -0.857
interaction score [15]: 0.553
interaction score [34]: 0.389
Binder: DEIQELEKKNEELKREIWELKKEIQELER [4H457-bH]

interaction score [40]: -0.872
Binder: DENKQLEQKNQRLKQEIQRLEWEIQKLEQ [O9-bP]
